Measurements from patent US20100093076A1, “SOLUBLE IL-27 RECEPTOR” (priority 2006, published 2010).
pKd: −log10 of the molar value.

Tests used:
[1] = molecular target: mouse IL-27 (single-chain molecule: EBI3 connected by its C-terminus to the N-terminus of IL-27 p28 via a polypeptide linker, amino-terminal peptide tag) (mouse) (UniProt O35228); test: SPR (BIACORE 3000), receptor captured by anti-mouse Fc antibody on CM5 chip, ligand as analyte, 1:1 model with mass transport
[2] = molecular target: human IL-27 (single-chain molecule: EBI3 connected by its C-terminus to the N-terminus of IL-27 p28 via a polypeptide linker, amino-terminal peptide tag) (human) (UniProt Q14213); test: cell-based or functional assay
[3] = molecular target: mouse IL-27 (single-chain molecule: EBI3 connected by its C-terminus to the N-terminus of IL-27 p28 via a polypeptide linker, amino-terminal peptide tag) (mouse) (UniProt O35228); test: cell-based or functional assay
[4] = molecular target: human IL-27 (single-chain molecule: EBI3 connected by its C-terminus to the N-terminus of IL-27 p28 via a polypeptide linker, amino-terminal peptide tag) (human) (UniProt Q14213); test: SPR (BIACORE 3000), receptor amine-coupled to CM5 chip, ligand as analyte, 1:1 model with mass transport
[5] = molecular target: mouse IL-27 (single-chain molecule: EBI3 connected by its C-terminus to the N-terminus of IL-27 p28 via a polypeptide linker, amino-terminal peptide tag) (mouse) (UniProt O35228); test: as above

Q: What does the source list for “IL27RAm(mFc1), mouse IL27RA-Fc fusion polypeptide (extracellular domain of mouse IL27RA and wild type BALB/c mouse gamma2a constant region Fc tag)”?
A: pKd [1]: 9.92; koff [1]: 0.0012 s⁻¹; kon [1]: 1e+07 M⁻¹ s⁻¹; IC50 (nM), inhibition of IL-27-induced STAT3 phosphorylation, mouse spleens, huIL-27 at EC90 2 nM [2]: 9.3 nM; IC50 (nM), inhibition of IL-27-induced STAT3 phosphorylation, total human PBMCs, huIL-27 at EC90 2 nM [2]: 1370 nM; IC50 (nM), inhibition of IL-27-induced STAT3 phosphorylation, mouse spleens, muIL-27 at EC90 0.2 nM [3]: 0.18 nM; IC50 (nM), inhibition of IL-27-induced STAT3 phosphorylation, total human PBMCs, muIL-27 at EC90 2 nM [3]: 4.83 nM; IL-2 concentration (pg/ml), naive mouse CD4 T cells, 48 hr, mIL-27RA 0 ug/ml (zero point, no soluble receptor present) + mouse IL-27 10 ng/ml [3]: 1260 pg/mL; IL-2 concentration (pg/ml), naive mouse CD4 T cells, 48 hr, mIL-27RA 5 ug/ml + mouse IL-27 10 ng/ml [3]: 4020 pg/mL; IL-2 concentration (pg/ml), naive mouse CD4 T cells, 48 hr, mIL-27RA 10 ug/ml (second row) + mouse IL-27 10 ng/ml [3]: 4920 pg/mL; IL-2 concentration (pg/ml), naive mouse CD4 T cells, 48 hr, mIL-27RA 10 ug/ml + mouse IL-27 10 ng/ml [3]: 5220 pg/mL; IL-2 concentration (pg/ml), naive mouse CD4 T cells, 72 hr, mIL-27RA 0 ug/ml (zero point, no soluble receptor present) + mouse IL-27 10 ng/ml [3]: 234 pg/mL; IL-2 concentration (pg/ml), naive mouse CD4 T cells, 72 hr, mIL-27RA 5 ug/ml + mouse IL-27 10 ng/ml [3]: 5740 pg/mL; IL-2 concentration (pg/ml), naive mouse CD4 T cells, 72 hr, mIL-27RA 10 ug/ml (second row) + mouse IL-27 10 ng/ml [3]: 12200 pg/mL; IL-2 concentration (pg/ml), naive mouse CD4 T cells, 72 hr, mIL-27RA 10 ug/ml + mouse IL-27 10 ng/ml [3]: 6700 pg/mL; block of the ability of mouse IL-27 to inhibit IL-2 production by naive CD4 T cells [3]: 50%

Q: How did the pKd [4] turn out when “human IL27RA-Fc5 fusion protein (Fc fusion)” was run?
A: 9.72

Q: What about the koff [4] of the same substance?
A: 0.0019 s⁻¹

Q: And the kon [4]?
A: 1e+07 M⁻¹ s⁻¹

Q: What about the pKd [5] of the same substance?
A: 9.66

Q: And the koff [5]?
A: 0.0018 s⁻¹

Q: What about the kon [5] of the same substance?
A: 8.1e+06 M⁻¹ s⁻¹

Q: And the IC50 (nM), inhibition of IL-27-induced STAT3 phosphorylation, mouse spleens, huIL-27 at EC90 2 nM [2]?
A: 0.32 nM

Q: And the IC50 (nM), inhibition of IL-27-induced STAT3 phosphorylation, total human PBMCs, huIL-27 at EC90 2 nM [2]?
A: 0.95 nM

Q: And the IC50 (nM), inhibition of IL-27-induced STAT3 phosphorylation, mouse spleens, muIL-27 at EC90 0.2 nM [3]?
A: 0.14 nM

Q: What about the IC50 (nM), inhibition of IL-27-induced STAT3 phosphorylation, total human PBMCs, muIL-27 at EC90 2 nM [3] of the same substance?
A: 2.97 nM

Q: And the IL-2 concentration (pg/ml), naive mouse CD4 T cells, 48 hr, hIL-27RA 0 ug/ml (zero point, no soluble receptor present) + mouse IL-27 10 ng/ml [3]?
A: 1780 pg/mL

Q: And the IL-2 concentration (pg/ml), naive mouse CD4 T cells, 48 hr, hIL-27RA 5 ug/ml + mouse IL-27 10 ng/ml [3]?
A: 5780 pg/mL

Q: And the IL-2 concentration (pg/ml), naive mouse CD4 T cells, 48 hr, hIL-27RA 10 ug/ml (second row) + mouse IL-27 10 ng/ml [3]?
A: 5330 pg/mL

Q: What about the IL-2 concentration (pg/ml), naive mouse CD4 T cells, 48 hr, hIL-27RA 10 ug/ml + mouse IL-27 10 ng/ml [3] of the same substance?
A: 5770 pg/mL

Q: And the IL-2 concentration (pg/ml), naive mouse CD4 T cells, 72 hr, hIL-27RA 0 ug/ml (zero point, no soluble receptor present) + mouse IL-27 10 ng/ml [3]?
A: 1260 pg/mL

Q: What about the IL-2 concentration (pg/ml), naive mouse CD4 T cells, 72 hr, hIL-27RA 5 ug/ml + mouse IL-27 10 ng/ml [3] of the same substance?
A: 1870 pg/mL

Q: What about the IL-2 concentration (pg/ml), naive mouse CD4 T cells, 72 hr, hIL-27RA 10 ug/ml (second row) + mouse IL-27 10 ng/ml [3] of the same substance?
A: 17500 pg/mL

Q: What about the IL-2 concentration (pg/ml), naive mouse CD4 T cells, 72 hr, hIL-27RA 10 ug/ml + mouse IL-27 10 ng/ml [3] of the same substance?
A: 28600 pg/mL

Q: And the block of the ability of mouse IL-27 to inhibit IL-2 production by naive CD4 T cells [3]?
A: 50%
